Measurements as given in patent publication US20190194358A1 (ARIZONA BOARD OF REGENTS A BODY CORPORATE OF THE STATE OF …, published 2019).
Like-named read-outs stand apart in the source and are kept apart here. Ends that are not written are not given here.

Assays:
transferrin [1] = biological target: T1, transferrin (human, UniProt P02787 20-698); assay: SPR (Biacore T100), transferrin immobilised, steady-state response
T1 construct: also called TRF; pooled human transferrin (Sigma)
Description: Flow rates and contact times are adjusted as necessary to provide the surface concentration of target desired for the intended application, and may vary by target. In general, for evaluating whether binding occurs, it is preferable to immobilize a relatively large quantity of target, and higher flow rates and/or longer contact times may be used. For determining kinetics, it is preferable to limit the amount of target immobilized so as to minimize rebinding and avidity effects, and lower flow rates and/or contact times may be used.
Because the off rates for these polypeptides were very high, KD values were estimated by measuring steady-state response for at least five concentrations in a two-fold dilution series, each concentration tested in duplicate. For each experiment, response data were processed using a reference surface to correct for bulk refractive index changes and any non-specific binding. Data were also double referenced using responses from blank running buffer injections. […] Analytes were injected for 60 s at a flow rate of 30 μl/min. The antigen surfaces were regenerated with 30 s consecutive pulses of NaOH/NaCl (50 mM NaOH in 1M NaCl) and Glycine (10 mM glycine-HCl, pH 2.5).

transferrin [2] = biological target: T1, transferrin; assay: peptide microarray with organic prewash, Alexa 555 transferrin with Alexa 647 E. coli lysate; rank by the score of Example 2
transferrin [3] = biological target: T1, transferrin; assay: peptide microarray without organic prewash, Alexa 555 transferrin with Alexa 647 E. coli lysate; rank by the score of Example 2
[4] = biological target: T2, Tumor Necrosis Factor-alpha (UniProt P01375 77-233); assay: SPR; reference TNF1 lead peptide
T2 construct: Immobilised on pipette tips or SPR chips (amine coupling or biotin capture); also called TNF-α; TNF-alpha
Protocol: (§1) Point-mutant libraries were prepared in 96-well stock plates From the stock plate, peptides were diluted to 50 μM concentration in Biacore HBS-EP buffer (GE Healthcare, Piscataway, N.J.) containing 1 mg/ml carboxymethyl-dextran (Sigma-Aldrich, St. Louis, Mo.) to reduce non-specific binding to the CM-5 SPR chip surface. TNF-αt was captured on a CM-5 chip surface at different capture levels on spots 1, 2, 4, and 5 across all four flow cells corresponding to a 40-200 RU range of predicted Rₘₐₓ binding responses. Spot 3 contained only immobilized neutravidin and served as a reference spot.
(§2) Purified point-mutant affinities were measured on the Biacore A100 using SPR equilibrium binding response across a series of peptide concentrations on an SPR chip with TNF-α captured as described above.

[5] = biological target: T2, Tumor Necrosis Factor-alpha; assay: SPR (Biacore A100), TNF-α captured, equilibrium response over a concentration series
Protocol: as §1, §2

[6] = biological target: T2, Tumor Necrosis Factor-alpha; assay: SPR; reference TNF1 lead peptide; remark: listed apart in the source
Protocol: as §1, §2

[7] = biological target: T2, Tumor Necrosis Factor-alpha; assay: SPR; difference to the TNF1 lead peptide
Protocol: as §1, §2

[8] = biological target: T2, Tumor Necrosis Factor-alpha; assay: SPR (Biacore A100) point-mutant screen at 50 µM peptide
Protocol: as §1
Using the prepared 96-well plates and Biacore A100 SPR instrument, four peptides were flowed separately, in parallel, through the four flow cells over all 4 TNF-α spots and the neutravidin reference spot, with a 60 second association phase and 300 second dissociation phase. SPR sensorgrams were recorded for each peptide response with all 4 TNF-α spots and the neutravidin reference spot across the four flow cells on the SPR chip. Surface regeneration was performed after every 12 injections in each flow cell with Biacore Glycine 2.5 regeneration solution (GE Healthcare, Piscataway, N.J.). Point-mutant reference subtracted, peptide molecular weight adjusted, responses at the late binding region of the sensorgram (a few seconds before dissociation) were compared to the response of the TNF1 lead

[9] = biological target: T2, Tumor Necrosis Factor-alpha; assay: SPR (Biacore A100), TNF-α captured, equilibrium response over a concentration series; remark: listed apart in the source
Protocol: as §1, §2

[10] = biological target: T2, Tumor Necrosis Factor-alpha; assay: SPR-derived binding energies
[11] = biological target: T2, Tumor Necrosis Factor-alpha; assay: SPR equilibrium binding (Biacore A100), TNF-α captured on the chip
transferrin [12] = biological target: T1, transferrin; assay: SPR (Biacore A-100), biotinylated transferrin captured on Neutravidin, unpurified peptide injected for 60 s
Gal80 = biological target: T3, Gal80 (UniProt P04387 1-435, limits assumed); assay: SPR, gal80 immobilised on the chip; Kd from on and off rates
T3 construct: Cy3/Cy5 labelled on arrays, immobilised for SPR and ELISA
T3 sequence (looked up): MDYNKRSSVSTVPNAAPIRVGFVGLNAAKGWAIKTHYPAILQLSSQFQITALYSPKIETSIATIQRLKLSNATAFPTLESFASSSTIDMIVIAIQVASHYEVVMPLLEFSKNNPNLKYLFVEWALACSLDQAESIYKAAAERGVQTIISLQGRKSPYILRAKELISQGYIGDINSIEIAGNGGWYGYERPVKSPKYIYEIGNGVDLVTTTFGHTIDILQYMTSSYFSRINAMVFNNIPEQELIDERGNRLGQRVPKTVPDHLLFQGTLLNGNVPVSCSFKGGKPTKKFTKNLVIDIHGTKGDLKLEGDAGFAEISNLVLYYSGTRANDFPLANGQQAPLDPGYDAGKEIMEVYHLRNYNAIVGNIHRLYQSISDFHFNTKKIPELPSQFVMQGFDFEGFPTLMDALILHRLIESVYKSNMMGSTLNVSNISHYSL

transferrin [13] = biological target: T1, transferrin; assay: SPR (Biacore A-100), biotinylated transferrin captured on Neutravidin, unpurified peptide injected for 60 s; remark: listed apart in the source
transferrin [14] = biological target: T1, transferrin; assay: as above; remark: listed apart in the source
transferrin [15] = biological target: T1, transferrin; assay: affinity characterisation of Example 29 (SPR; format for the purified peptides not stated)
transferrin [16] = biological target: T1, transferrin; assay: reference TRF26 lead peptide
transferrin [17] = biological target: T1, transferrin; assay: SPR (Biacore T100), transferrin immobilised (9758 RU), steady state affinity fit
Description: Affinity plots were generated for each peptide and fit using a steady state affinity model.

[18] = biological target: T4, SC1 Transcription factor 19 (human, UniProt Q9Y242); assay: Invitrogen ProtoArray Human Protein Microarray v4.0; biotinylated synbody, fluorescently labelled streptavidin; fluorescence intensity
T4 construct: GST fusion on the array
T4 sequence (looked up): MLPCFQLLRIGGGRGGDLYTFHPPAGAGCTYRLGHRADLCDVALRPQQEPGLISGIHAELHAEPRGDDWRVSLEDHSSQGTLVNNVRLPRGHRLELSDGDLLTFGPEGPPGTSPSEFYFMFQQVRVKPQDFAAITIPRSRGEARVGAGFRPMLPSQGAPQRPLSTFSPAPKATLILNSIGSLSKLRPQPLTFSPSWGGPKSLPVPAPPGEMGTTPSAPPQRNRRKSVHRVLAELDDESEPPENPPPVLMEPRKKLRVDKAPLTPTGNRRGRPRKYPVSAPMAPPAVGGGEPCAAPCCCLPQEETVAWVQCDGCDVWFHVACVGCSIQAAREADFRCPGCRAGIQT
Protocol: (§3) The prescribed cover slip was placed over the array and adjusted to remove air bubbles. The array was incubated in a 50 ml conical tube, printed side up, for 1.5 hours at 4 C without shaking. The array was then removed from the conical tube inserted diagonally into the array chamber, kept on ice. 8 ml probing buffer was added to the chamber wall. The cover slip was removed and the array was incubated in probing buffer for 1 minute on ice. The probing buffer was decanted and drained. Two further washings were performed adding 8 ml probing buffer, incubating on ice for 1 minute, and decanting and draining. 5 nM fluorescently labeled streptavidin diluted in 6 ml probing buffer was incubated on the array for 30 minutes on ice in the dark, after which the solution was decanted and drained. Three wash steps were performed, each by adding 8 ml probing buffer, incubating for 1 minute on ice, decanting, and draining. The array was removed from the chamber, centrifuged at 800×g for 5 minutes at room temperature. The array was dried in the dark for 60 minutes at room temperature, after which it was scanned using a fluorescent microarray scanner and data was taken and analyzed.

PSMA3 = biological target: T5, PSMA3 (human, UniProt P25788); assay: as above
T5 construct: GST fusion on the array
Protocol: as §3

GRP58 = biological target: T6, GRP58 (human, UniProt P30101 25-505, limits assumed); assay: as above
T6 construct: GST fusion adsorbed on a nitrocellulose slide
T6 sequence (looked up): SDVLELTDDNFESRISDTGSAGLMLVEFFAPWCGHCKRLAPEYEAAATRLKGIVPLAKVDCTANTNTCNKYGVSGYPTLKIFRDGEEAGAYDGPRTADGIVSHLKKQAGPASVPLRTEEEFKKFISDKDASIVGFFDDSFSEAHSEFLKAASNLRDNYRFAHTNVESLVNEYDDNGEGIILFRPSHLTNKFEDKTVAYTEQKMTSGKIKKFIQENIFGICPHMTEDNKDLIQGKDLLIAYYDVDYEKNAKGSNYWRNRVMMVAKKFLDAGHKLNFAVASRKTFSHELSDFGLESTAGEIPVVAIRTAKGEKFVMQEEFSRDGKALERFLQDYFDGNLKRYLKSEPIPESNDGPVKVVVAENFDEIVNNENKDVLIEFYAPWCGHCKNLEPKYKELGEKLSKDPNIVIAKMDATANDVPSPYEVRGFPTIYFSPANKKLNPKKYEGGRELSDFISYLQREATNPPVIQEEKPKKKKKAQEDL
Protocol: as §3

T1 sequence (P02787 20-698 limits assumed): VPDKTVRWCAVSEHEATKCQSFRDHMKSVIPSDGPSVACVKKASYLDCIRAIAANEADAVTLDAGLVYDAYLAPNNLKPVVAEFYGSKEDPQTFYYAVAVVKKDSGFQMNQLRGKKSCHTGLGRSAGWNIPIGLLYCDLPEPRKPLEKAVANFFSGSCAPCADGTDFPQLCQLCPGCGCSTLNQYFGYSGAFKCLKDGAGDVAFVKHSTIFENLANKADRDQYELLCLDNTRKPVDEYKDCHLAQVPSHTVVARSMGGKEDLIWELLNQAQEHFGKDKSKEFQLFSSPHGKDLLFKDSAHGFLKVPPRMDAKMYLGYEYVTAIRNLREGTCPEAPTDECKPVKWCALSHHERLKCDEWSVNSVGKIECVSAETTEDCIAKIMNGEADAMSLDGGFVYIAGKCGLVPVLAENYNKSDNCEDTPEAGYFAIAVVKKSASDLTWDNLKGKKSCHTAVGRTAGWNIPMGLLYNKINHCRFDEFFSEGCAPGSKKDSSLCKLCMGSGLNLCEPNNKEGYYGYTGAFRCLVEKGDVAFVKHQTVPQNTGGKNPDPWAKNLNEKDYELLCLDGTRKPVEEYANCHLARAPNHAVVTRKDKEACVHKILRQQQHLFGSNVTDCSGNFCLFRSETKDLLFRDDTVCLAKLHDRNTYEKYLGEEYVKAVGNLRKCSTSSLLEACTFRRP
T2 sequence (P01375 77-233 limits assumed): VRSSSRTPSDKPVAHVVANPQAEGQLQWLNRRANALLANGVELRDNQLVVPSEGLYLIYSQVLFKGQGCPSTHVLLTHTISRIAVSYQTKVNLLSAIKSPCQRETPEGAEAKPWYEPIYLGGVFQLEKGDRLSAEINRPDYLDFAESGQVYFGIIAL
T5 sequence (P25788 whole entry, the tested form may be a part): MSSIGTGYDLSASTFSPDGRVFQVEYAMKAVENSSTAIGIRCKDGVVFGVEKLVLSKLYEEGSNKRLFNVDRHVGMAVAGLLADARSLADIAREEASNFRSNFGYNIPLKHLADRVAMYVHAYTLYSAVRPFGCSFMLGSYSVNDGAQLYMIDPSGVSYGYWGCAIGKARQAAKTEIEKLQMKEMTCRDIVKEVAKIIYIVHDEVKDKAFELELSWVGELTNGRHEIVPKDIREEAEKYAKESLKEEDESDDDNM

SVKPWRPLITGNRWLNSGSC (20-mer ending GSC) [TRF24]
Kd (transferrin [1]): ~50 µM
Rank -- prewash (transferrin [2]): 958 rank
Rank - non-prewash (transferrin [3]): 71 rank

B1: TRF19 (peptide)
peptide: KEDNPGYSSEQDYNKLDGSC
notes: 20-mer ending GSC; on arrays attached by the C-terminal Cys
Kd (transferrin [1]): ~150 µM
Rank -- prewash (transferrin [2]): 9600 rank
Rank - non-prewash (transferrin [3]): 5010 rank

FERSYLKMPWSFLQSRQGSC [TNF1 D4S+P5Y+M7K triple mutant]
Kd Fold-Change Relative to Lead [4]: 11 fold
Kd [5]: 14 µM
Observed Binding ΔG [5]: -6.63 kcal/mol

FERDPLMMPWKFLQSRQGSC [TNF1 S11K point-mutant]
Kd Fold-Change Relative to Lead [6]: 3.9 fold
Component Binding ΔG Contribution [7]: -0.82 kcal/mol
fold enhancement in SPR binding response relative to TNF1 [8]: ≥ 15 fold
Binding ΔG [9]: -6.03 kcal/mol
Kd [9]: 40 µM

FERDYLMMPWSFLQSRQGSC [TNF1 P5Y point-mutant]
Kd Fold-Change Relative to Lead [6]: 2.7 fold
Component Binding ΔG Contribution [7]: -0.58 kcal/mol
fold enhancement in SPR binding response relative to TNF1 [8]: ≥ 15 fold
Binding ΔG [9]: -5.79 kcal/mol
Kd [9]: 58 µM

FERYPLMMPWSFLQSRQGSC [TNF1 D4Y point-mutant]
Kd Fold-Change Relative to Lead [6]: 3.6 fold
Component Binding ΔG Contribution [7]: -0.74 kcal/mol
fold enhancement in SPR binding response relative to TNF1 [8]: ≥ 15 fold
Binding ΔG [9]: -5.95 kcal/mol
Kd [9]: 44 µM

FERDPLKMPWSFLQSRQGSC [TNF1 M7K point-mutant]
Kd Fold-Change Relative to Lead [6]: 2.8 fold
Component Binding ΔG Contribution [7]: -0.72 kcal/mol
fold enhancement in SPR binding response relative to TNF1 [8]: ≥ 15 fold
Binding ΔG [9]: -5.93 kcal/mol
Kd [9]: 57 µM

B2: TNF1 D4S+P5Y+S11K triple mutant (peptide)
peptide: FERSYLMMPWKFLQSRQGSC
notes: also called D4S + P5Y + S1IK (so in the source)
difference in observed binding energy relative to P5Y+S11K [10]: -0.72 kcal/mol
Kd Fold-Change Relative to Lead [4]: 23 fold
Fold Change (Ka mutant / Ka TNF1) [11]: 23 fold
Kd [5]: 7 µM
Observed Binding ΔG [5]: -7.03 kcal/mol

FERYPLKMPWSFLQSRQGSC [TNF1 D4Y+M7K double mutant]
Kd Fold-Change Relative to Lead [4]: 9.4 fold
Kd [5]: 17 µM
Observed Binding ΔG [5]: -6.54 kcal/mol

FERDYLMMPWKFLQSRQGSC [TNF1 P5Y+S11K double mutant]
Kd Fold-Change Relative to Lead [4]: 6.6 fold
Kd [5]: 24 µM
Observed Binding ΔG [5]: -6.63 kcal/mol

FERDYLKMPWSFLQSRQGSC [TNF1 P5Y+M7K double mutant]
Kd Fold-Change Relative to Lead [4]: 5.8 fold
Kd [5]: 27 µM
Observed Binding ΔG [5]: -6.24 kcal/mol

APYAPQQIHYWSTLGFKGSC (20-mer ending GSC) [TRF25]
Kd (transferrin [1]): ~60 µM
Rank -- prewash (transferrin [2]): 603 rank
Rank - non-prewash (transferrin [3]): 736 rank

B3: peptide of FIG. 60B (peptide)
peptide: NIRMLLRFTVFPAQKLIGSC
notes: Unpurified library peptide (~50 to 70% pure)
binding result (transferrin [12]): binds

QYHHFMNLKRQGRAQAYGSC (20-mer ending GSC) [TRF21]
Kd (transferrin [1]): ~60 µM
Rank -- prewash (transferrin [2]): 5 rank
Rank - non-prewash (transferrin [3]): 84 rank

B4: BP2 on dsDNA (peptide)
affinity element BP2: EGEWTEGKLSLRGSC
modifications: C-terminal Cys joined through SMCC to the DNA linker
notes: also called BP2 alone conjugated to the double-stranded DNA linker
Kd (Gal80): 982 nM

B5: BP1 on dsDNA (peptide)
affinity element BP1: GTEKGTSGWLKTGSC
modifications: C-terminal Cys joined through SMCC to the DNA linker
notes: also called BP1 alone conjugated to the double-stranded DNA linker
Kd (Gal80): 482 nM

DFLWSKSGILSHASWNHGSC (Unpurified library peptide) [peptide of FIG. 60D]
binding result (transferrin [13]): binds

WMDDIDAPQDEWWVFHHGSC (Unpurified library peptide) [peptide of FIG. 60C]
binding result (transferrin [14]): binds

FRGWAHIFFGPHVIYRGGSC (20-mer ending GSC) [TRF23]
Kd (transferrin [1]): ~50 µM
Rank -- prewash (transferrin [2]): 2090 rank
Rank - non-prewash (transferrin [3]): 2720 rank

B6: TRF26 (peptide)
peptide: AHKVVPQRQIRHAYNRYGSC
notes: 20-mer ending GSC; also called TRF26 Lead Peptide
Kd (transferrin [1]): ~100 µM
Binding ΔG (transferrin [15]): -5.56 kcal/mol
Kd (transferrin [15]): 85 µM
Rank -- prewash (transferrin [2]): 436 rank
Rank - non-prewash (transferrin [3]): 596 rank

AHKVVPQRQIRFAYNRYGSC [TRF26 H12F point-mutant]
Kd Fold-Change Relative to Lead (transferrin [16]): 8.8 fold
Binding ΔG (transferrin [15]): -6.85 kcal/mol
Kd (transferrin [15]): 9.7 µM

B7: TBPL005 (peptide)
peptide: GHKVVPQRQIRHAYNRYGSC
notes: Clone from mRNA display on a doped TRF26 library; synthesised and HPLC purified
Kd (transferrin [17]): 150 µM

B8: TBPL025 (peptide)
peptide: GHKVVPQRQMRHAYNRNGSC
notes: Clone from mRNA display on a doped TRF26 library
Kd (transferrin [17]): 150 µM

AHKVVYQRQIRHAYNRYGSC [TRF26 P6Y point-mutant]
Kd Fold-Change Relative to Lead (transferrin [16]): 10 fold
Binding ΔG (transferrin [15]): -6.93 kcal/mol
Kd (transferrin [15]): 8.6 µM

RFQLTQHYAQFWGHYTWGSC (20-mer ending GSC) [TRF28]
Rank -- prewash (transferrin [2]): 712 rank
Rank - non-prewash (transferrin [3]): 601 rank

B9: SYN21-22 (designed binder)
peptide 1: QYHHFMNLKRQGRAQAYGSG
peptide 2: HAYKGPGDMRRFNHSGMGSG
modifications: also: both chains joined by C-terminus to the amines of a branching Lys, Lys-Cys linker with biotinylated Cys thiol
notes: Lysine linker followed by cysteine; the thiol of the cysteine biotinylated for the protein array; also called anti-TRF synbody
binding result [18]: binds
binding result (PSMA3): binds
binding result (GRP58): binds
